According to US20260167699A1 (Chugai, published 2026):
Residue numbers refer to the chain shown, from its start. Blank lines part the entries; values can stand above or below the binder they belong to.

Columns and labels:
Assay in all cases: SPR, vs GpH7-A5/GpH7-B3/GpL16-k0 =100
[1] = target: T1, FcγRIIa(H) extracellular domain, His-tagged (human, UniProt P12318 34-217)
T1 construct: extracellular domain; also called 2aH
T1 sequence: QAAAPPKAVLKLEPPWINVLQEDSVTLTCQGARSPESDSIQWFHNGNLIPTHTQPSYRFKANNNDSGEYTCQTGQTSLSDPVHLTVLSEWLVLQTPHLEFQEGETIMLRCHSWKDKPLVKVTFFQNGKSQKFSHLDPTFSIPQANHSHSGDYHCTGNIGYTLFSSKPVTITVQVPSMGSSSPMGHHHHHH

[2] = target: T2, FcγRIIa(R) extracellular domain, His-tagged (human, UniProt P12318 34-217)
T2 construct: extracellular domain; also called 2aR
T2 sequence: T1 sequence with H134R

[3] = target: T3, FcγRIa extracellular domain, His-tagged (human, UniProt P12314 16-292)
T3 construct: extracellular domain; also called 1a
T3 sequence (P12314 other isoform, or with tags, fused parts or gaps): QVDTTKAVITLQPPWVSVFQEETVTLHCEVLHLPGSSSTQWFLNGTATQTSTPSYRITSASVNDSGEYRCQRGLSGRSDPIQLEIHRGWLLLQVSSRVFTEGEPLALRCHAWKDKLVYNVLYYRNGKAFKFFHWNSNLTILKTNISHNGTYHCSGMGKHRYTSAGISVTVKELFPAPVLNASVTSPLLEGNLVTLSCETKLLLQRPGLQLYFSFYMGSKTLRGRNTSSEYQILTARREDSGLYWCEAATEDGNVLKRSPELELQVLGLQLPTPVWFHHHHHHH

[4] = target: T4, FcγRIIIa extracellular domain, His-tagged (human, UniProt P08637 17-208)
T4 construct: extracellular domain; also called 3a
T4 sequence (P08637 other isoform, or with tags, fused parts or gaps): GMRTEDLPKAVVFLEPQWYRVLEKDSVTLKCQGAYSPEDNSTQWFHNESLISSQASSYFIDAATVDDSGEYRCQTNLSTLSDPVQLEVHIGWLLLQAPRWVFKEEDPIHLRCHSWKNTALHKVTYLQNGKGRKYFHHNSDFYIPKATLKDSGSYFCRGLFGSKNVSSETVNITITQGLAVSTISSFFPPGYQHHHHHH

[5] = target: T5, FcγRIIb extracellular domain, His-tagged (human, UniProt P31994 43-217)
T5 construct: extracellular domain; also called 2b
T5 sequence: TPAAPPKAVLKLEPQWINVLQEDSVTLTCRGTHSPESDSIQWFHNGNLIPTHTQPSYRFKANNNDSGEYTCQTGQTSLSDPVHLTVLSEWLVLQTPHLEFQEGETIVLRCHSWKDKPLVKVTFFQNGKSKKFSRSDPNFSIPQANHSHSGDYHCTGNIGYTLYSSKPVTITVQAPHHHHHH

B2: GpH7-A5/GpH7-B3 variant Q295_07I/GpL16-k0 (antibody, human IgG1, kappa)
heavy 1: not shown
heavy 2: not shown
light: DIVMTQSPLSLPVTPGEPASISCQASESLVHSNRNTYLHWYLQKPGQSPQLLIYKVSNRFSGVPDRFSGSGSGTDFTLKISRVEAEDVGVYYCSQNTHVPPTFGQGTKVEIERTVAAPSVFIFPPSDEQLKSGTASVVCLLNNFYPREAKVQWKVDNALQSGNSQESVTEQDSKDSTYSLSSTLTLSKADYEKHKVYACEVTHQGLSSPVTKSFNRGEC
He/Con 2aH [1]: 117 % of control
He/Con 2aR [2]: 97.3 % of control
He/Con 1a [3]: 101 % of control
He/Con 3a [4]: 101 % of control
He/Con 2b [5]: 94.5 % of control

B3: GpH7-A5/GpH7-B3 variant Q295_04F/GpL16-k0 (antibody, human IgG1, kappa)
heavy 1: not shown
heavy 2: not shown
light: B2 light
He/Con 2aH [1]: 87.4 % of control
He/Con 2aR [2]: 82.8 % of control
He/Con 1a [3]: 101 % of control
He/Con 3a [4]: 75.1 % of control
He/Con 2b [5]: 72.6 % of control

B5: GpH7-A5/GpH7-B3 variant P271_01G/GpL16-k0 (antibody, human IgG1, kappa)
heavy 1: not shown
heavy 2: not shown
light: B2 light
He/Con 2aH [1]: 123 % of control
He/Con 2aR [2]: 143 % of control
He/Con 1a [3]: 103 % of control
He/Con 3a [4]: 119 % of control
He/Con 2b [5]: 217 % of control

B6: GpH7-A5/GpH7-B3 variant P271_07I/GpL16-k0 (antibody, human IgG1, kappa)
heavy 1: not shown
heavy 2: not shown
light: B2 light
He/Con 2aH [1]: 94.1 % of control
He/Con 2aR [2]: 88 % of control
He/Con 1a [3]: 101 % of control
He/Con 3a [4]: 80.2 % of control
He/Con 2b [5]: 86.1 % of control

B7: GpH7-A5/GpH7-B3 variant Q295_11K/GpL16-k0 (antibody, human IgG1, kappa)
heavy 1: not shown
heavy 2: not shown
light: B2 light
He/Con 2aH [1]: 102 % of control
He/Con 2aR [2]: 88.1 % of control
He/Con 1a [3]: 99.7 % of control
He/Con 3a [4]: 81.8 % of control
He/Con 2b [5]: 79 % of control

B8: GpH7-A5/GpH7-B3 variant P271_08L/GpL16-k0 (antibody, human IgG1, kappa)
heavy 1: not shown
heavy 2: not shown
light: B2 light
He/Con 2aH [1]: 99.4 % of control
He/Con 2aR [2]: 103 % of control
He/Con 1a [3]: 101 % of control
He/Con 3a [4]: 74.5 % of control
He/Con 2b [5]: 115 % of control

B9: GpH7-A5/GpH7-B3 variant P271_16H/GpL16-k0 (antibody, human IgG1, kappa)
heavy 1: not shown
heavy 2: not shown
light: B2 light
He/Con 2aH [1]: 76.4 % of control
He/Con 2aR [2]: 79 % of control
He/Con 1a [3]: 100 % of control
He/Con 3a [4]: 70.3 % of control
He/Con 2b [5]: 76.2 % of control

B11: GpH7-A5/GpH7-B3 variant P271_19Q/GpL16-k0 (antibody, human IgG1, kappa)
heavy 1: not shown
heavy 2: not shown
light: B2 light
He/Con 2aH [1]: 90.7 % of control
He/Con 2aR [2]: 95.1 % of control
He/Con 1a [3]: 102 % of control
He/Con 3a [4]: 84.6 % of control
He/Con 2b [5]: 99.3 % of control

B14: GpH7-A5/GpH7-B3 variant P271_02A/GpL16-k0 (antibody, human IgG1, kappa)
heavy 1: not shown
heavy 2: not shown
light: B2 light
He/Con 2aH [1]: 88.4 % of control
He/Con 2aR [2]: 93.9 % of control
He/Con 1a [3]: 102 % of control
He/Con 3a [4]: 83.7 % of control
He/Con 2b [5]: 98.7 % of control

B15: GpH7-A5/GpH7-B3 variant P271_06M/GpL16-k0 (antibody, human IgG1, kappa)
heavy 1: not shown
heavy 2: not shown
light: B2 light
He/Con 2aH [1]: 87.7 % of control
He/Con 2aR [2]: 87.3 % of control
He/Con 1a [3]: 101 % of control
He/Con 3a [4]: 74 % of control
He/Con 2b [5]: 87 % of control

Now from value to binder:

He/Con 2aH [1]: 77.1 % of control
He/Con 2aR [2]: 75.2 % of control
He/Con 1a [3]: 100 % of control
He/Con 3a [4]: 65.6 % of control
He/Con 2b [5]: 66.7 % of control
B1: GpH7-A5/GpH7-B3 variant P271_04F/GpL16-k0 (antibody, human IgG1, kappa)
heavy 1: not shown
heavy 2: not shown
light: B2 light

He/Con 2aH [1]: 94.5 % of control
He/Con 2aR [2]: 97.7 % of control
He/Con 1a [3]: 102 % of control
He/Con 3a [4]: 94 % of control
He/Con 2b [5]: 105 % of control
B4: GpH7-A5/GpH7-B3 variant P271_18N/GpL16-k0 (antibody, human IgG1, kappa)
heavy 1: not shown
heavy 2: not shown
light: B2 light

He/Con 2aH [1]: 80.4 % of control
He/Con 2aR [2]: 109 % of control
He/Con 1a [3]: 100 % of control
He/Con 3a [4]: 97.7 % of control
He/Con 2b [5]: 135 % of control
B10: GpH7-A5/GpH7-B3 variant P271_09D/GpL16-k0 (antibody, human IgG1, kappa)
heavy 1: not shown
heavy 2: not shown
light: B2 light

He/Con 2aH [1]: 101 % of control
He/Con 2aR [2]: 91.5 % of control
He/Con 1a [3]: 103 % of control
He/Con 3a [4]: 111 % of control
He/Con 2b [5]: 89.4 % of control
B12: GpH7-A5/GpH7-B3 variant Q295_02A/GpL16-k0 (antibody, human IgG1, kappa)
heavy 1: not shown
heavy 2: not shown
light: B2 light

He/Con 2aH [1]: 112 % of control
He/Con 2aR [2]: 101 % of control
He/Con 1a [3]: 101 % of control
He/Con 3a [4]: 105 % of control
He/Con 2b [5]: 106 % of control
B13: GpH7-A5/GpH7-B3 variant Q295_10E/GpL16-k0 (antibody, human IgG1, kappa)
heavy 1: not shown
heavy 2: not shown
light: B2 light

He/Con 2aH [1]: 96.4 % of control
He/Con 2aR [2]: 82.2 % of control
He/Con 1a [3]: 98.8 % of control
He/Con 3a [4]: 73.2 % of control
He/Con 2b [5]: 73.1 % of control
B16: GpH7-A5/GpH7-B3 variant Q295_12R/GpL16-k0 (antibody, human IgG1, kappa)
heavy 1: not shown
heavy 2: not shown
light: B2 light
